Assay results as given in patent US6562591 (RIGEL PHARMACEUTICALS, dated 2003).
Blank lines part the entries; values can stand above or below the binder they belong to.

Columns and labels:
Test in all cases: co-immunoprecipitation: anti-HA IP, anti-FLAG blot, Phoenix-A cell lysates
[1] = biological target: T1, FLAG-NCK, full length human NCK with N-terminal FLAG epitope tag (human, UniProt P16333 2-377)
T1 construct: mature; also called FLAG-tagged NCK
From the text: (§1) Washed precipitates were subjected to SDS-PAGE analysis and Western blotting. Supersignal and Supersignal West Duro substrates (Piers) were used as detection systems for the Western blotting.
(§2) Interaction of Tnik with TRAF2 and NCK—To confirm the interaction of Tnik with TRAF2, N-terminal HA-tagged Tnik was transiently expressed in Phoenix-A cells and HA-Tnik was immunoprecipitated by an anti-HA antibody. The immune complexes were resolved on SDS-PAGE and immunoblotted with an anti-TRAF2 antibody. Endogenous TRAF2 specifically co-immunoprecipitated with HA-Tnik (FIG. 6, top panel). To map the interaction domain on Tnik that mediated its interaction with TRAF2, we constructed several truncated forms of HA-tagged Tnik (FIG. 7) and co-expressed them with FLAG-tagged TRAF2. Anti-HA immunoprecipitates were then blotted with an anti-FLAG antibody to detect the co-immunoprecipitated FLAG-TRAF2. […] Expression levels of the transfected proteins were controlled by immunoblotting cell lysates with anti-HA and anti-FLAG antibodies (FIG. 8, middle and bottom panels).
(§3) We then mapped the domains on TRAF2 that mediated the interaction with Tnik. FLAG-tagged TRAF2 mutants (FIG. 9) were co-expressed with HA-Tnik and the lysates were subjected to anti-HA immunoprecipitation. The immune complexes were then blotted with an anti-FLAG antibody.

[2] = biological target: T2, FLAG-TRAF2, full length human Traf2 with N-terminal FLAG epitope tag (human, UniProt Q12933 2-501)
T2 construct: mature; also called FLAG-tagged TRAF2; TRAF2(WT)
T2 sequence: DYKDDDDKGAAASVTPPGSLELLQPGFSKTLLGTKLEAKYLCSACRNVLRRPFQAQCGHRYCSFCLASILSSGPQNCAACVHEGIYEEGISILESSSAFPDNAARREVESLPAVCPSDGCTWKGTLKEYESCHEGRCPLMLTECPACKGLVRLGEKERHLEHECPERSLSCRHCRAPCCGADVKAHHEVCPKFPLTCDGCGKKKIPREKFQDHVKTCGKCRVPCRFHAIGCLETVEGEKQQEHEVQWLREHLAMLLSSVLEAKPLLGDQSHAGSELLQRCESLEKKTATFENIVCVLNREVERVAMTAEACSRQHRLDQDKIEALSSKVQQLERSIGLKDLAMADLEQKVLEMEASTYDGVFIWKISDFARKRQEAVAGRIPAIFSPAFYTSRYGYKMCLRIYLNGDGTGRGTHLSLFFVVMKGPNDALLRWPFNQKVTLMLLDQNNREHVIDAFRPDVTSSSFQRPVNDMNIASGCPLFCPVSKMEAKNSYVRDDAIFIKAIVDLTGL
From the text: as §1, §2, §3

[3] = biological target: T3, HA-Tnik(WT), full length human Tnik isoform 1 with N-terminal HA epitope tag (human, UniProt Q9UKE5 1-1360)
T3 construct: Expressed transiently in Phoenix-A cells and immunoprecipitated from lysate; also called Tnik1
From the text: as §1, §2, §3

binding result [1]: no binding
binding result [2]: no binding
B1: HA-Tnik(N1), Tnik mutant with only the kinase domain (enzyme)
chain: AYPYDVPDYAMASDSPARSLDEIDLSALRDPAGIFELVELVGNGTYGQVYKGRHVKTGQLAAIKVMDVTGDEEEEIKQEINMLKKYSHHRNIATYYGAFIKKNPPGMDDQLWLVMEFCGAGSVTDLIKNTKGNTLKEEWIAYICREILRGLSHLHQHKVIHRDIKGQNVLLTENAEVKLVDFGVSAQLDRTVGRRNTFIGTPYWMAPEVIACDENPDATYDFKSDLWSLGITAIEMAEGAPPLCDMHPMRALFLIPRNPAPRLKSKKWSKKFQSFIESCLVKNHSQRPATEQLMKHPFIRDQPNERQVRIQLKDH

binding result [3]: no binding
B2: FLAG-TRAF2(1-272) (other, human)
chain: DYKDDDDKGMAAASVTPPGSLELLQPGFSKTLLGTKLEAKYLCSACRNVLRRPFQAQCGHRYCSFCLASILSSGPQNCAACVHEGIYEEGISILESSSAFPDNAARREVESLPAVCPSDGCTWKGTLKEYESCHEGRCPLMLTECPACKGLVRLGEKERHLEHECPERSLSCRHCRAPCCGADVKAHHEVCPKFPLTCDGCGKKKIPREKFQDHVKTCGKCRVPCRFHAIGCLETVEGEKQQEHEVQWLREHLAMLLSSVLEAKPLLGDQSHAGSELLQRC

binding result [1]: no binding
B3: HA-Tnik(C2), GCKH domain of Tnik (other)
chain: AYPYDVPDYARKISVVNVNPTNIRPHSDTPEIRKYKKRFNSEILCAALWGVNLLVGTENGLMLLDRSGQGKVYNLINRRRFQQMDVLEGLNVLVTISGKKNKLRVYYLSWLRNRILHNDPEVEKKQGWITVGDLEGCIHYKVVKYERIKFLVIALKNAVEIYAWAPKPYHKFMAFKSFADLQHKPLLVDLTVEEGQRLKVIFGSHTGFHVIDVDSGNSYDIYIPSHIQGNITPHAIVILPKTDGMEMLVCYEDEGVYVNTYGRITKDVVLQWGEMPTSVAYIHSNQIMGWGEKAIEIRSVETGHLDGVFMHKRAQRLKFLCERNDKVFFASVRSGGSSQVFFMTLNRNSMMNW
